Experimental findings from paper PMC5155159 are described below.

Data set [1] addresses T1, Dicer TN (catalytically inactive), without ectopic TRBP;TRBP full length (D1-D2-D3) (UniProt Q9UPY3+Q15633). The data set can be described thus: single-molecule TIRF, two-color. Particulars: amine-modified U69 (dye), 20 mM Tris pH 8.0, 200 mM KCl, 0.2 mM EDTA, glucose oxidase/catalase oxygen scavenger, 1 mM Trolox, 200 pM labelled RNA (200 nM in Methods), Mg2+ where ….
In data set [2] the target is Dicer TN (catalytically inactive), without ectopic TRBP (UniProt Q9UPY3). The data set can be described thus: single-molecule TIRF competition. The following applies: 1 uM competitor tRNA; WT or TN form not given; amine-modified U69 (dye); 20 mM Tris pH 8.0, 200 mM KCl, 0.2 mM EDTA, glucose oxidase/catalase oxygen scavenger, 1 mM Trolox; 200 pM labelled RNA (200 nM in Methods); Mg2+ where ….

Data set [3] addresses Dicer TN (catalytically inactive), without ectopic TRBP;TRBP D2-D3 (UniProt Q9UPY3+Q15633). The data set can be described thus: single-molecule TIRF competition. Particulars: 1 uM competitor tRNA; WT or TN form not given; amine-modified U69 (dye); 20 mM Tris pH 8.0, 200 mM KCl, 0.2 mM EDTA, glucose oxidase/catalase oxygen scavenger, 1 mM Trolox; 200 pM labelled RNA (200 nM in Methods); Mg2+ where ….

The target in data set [4] is Dicer TN (catalytically inactive), without ectopic TRBP;TRBP D3 (UniProt Q9UPY3+Q15633). Nature of the data set: single-molecule TIRF competition. The following applies: 1 uM competitor tRNA; WT or TN form not given; amine-modified U69 (dye); 20 mM Tris pH 8.0, 200 mM KCl, 0.2 mM EDTA, glucose oxidase/catalase oxygen scavenger, 1 mM Trolox; 200 pM labelled RNA (200 nM in Methods); Mg2+ where ….

Data set [5] has as its target T1, Dicer TN (catalytically inactive), without ectopic TRBP;TRBP full length (D1-D2-D3). Nature of the data set: single-molecule TIRF competition. The following applies: 1 uM competitor tRNA; WT or TN form not given; amine-modified U69 (dye); 20 mM Tris pH 8.0, 200 mM KCl, 0.2 mM EDTA, glucose oxidase/catalase oxygen scavenger, 1 mM Trolox; 200 pM labelled RNA (200 nM in Methods); Mg2+ where ….

The target of data set [6] is Dicer TN (catalytically inactive), without ectopic TRBP (UniProt Q9UPY3). Nature of the data set: single-molecule TIRF. The following applies: amine-modified U69 (dye), 20 mM Tris pH 8.0, 200 mM KCl, 0.2 mM EDTA, glucose oxidase/catalase oxygen scavenger, 1 mM Trolox, 200 pM labelled RNA (200 nM in Methods), Mg2+ where ….
The target in data set [7] is T1, Dicer TN (catalytically inactive), without ectopic TRBP;TRBP full length (D1-D2-D3). Nature of the data set: single-molecule TIRF. The following applies: amine-modified U69 (dye), 20 mM Tris pH 8.0, 200 mM KCl, 0.2 mM EDTA, glucose oxidase/catalase oxygen scavenger, 1 mM Trolox, 200 pM labelled RNA (200 nM in Methods), Mg2+ where ….
The target of another data set is T2, TRBP recombinant (UniProt Q15633).
T2 sequence: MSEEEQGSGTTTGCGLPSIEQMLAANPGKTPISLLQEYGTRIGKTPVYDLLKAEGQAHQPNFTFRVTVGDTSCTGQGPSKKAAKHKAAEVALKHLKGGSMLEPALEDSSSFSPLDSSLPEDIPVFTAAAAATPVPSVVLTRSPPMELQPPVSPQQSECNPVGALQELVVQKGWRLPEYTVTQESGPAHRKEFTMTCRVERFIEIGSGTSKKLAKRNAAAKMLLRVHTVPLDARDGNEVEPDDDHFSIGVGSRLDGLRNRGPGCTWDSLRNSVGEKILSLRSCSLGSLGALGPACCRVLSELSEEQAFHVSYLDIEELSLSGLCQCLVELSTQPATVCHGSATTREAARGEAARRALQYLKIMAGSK
Nature of the data set: single-molecule TIRF. Particulars: amine-modified U69 (dye), 20 mM Tris pH 8.0, 200 mM KCl, 0.2 mM EDTA, glucose oxidase/catalase oxygen scavenger, 1 mM Trolox, 200 pM labelled RNA (200 nM in Methods), Mg2+ where ….

[8] abbreviates: equivalent IP amount, WT or TN form not given.

In the case of “UGAGGUAGUAGGUUGUAUAGUUUUAGGGUCACACCCACCACUGGGAGAUAACUAUACAAUCUACUGUCUUUC [pre-let-7a-1 3' 1nt]”, the binding signal (binding events) in data set [1] (2.9x fewer than N1, 55.6% long, 25.3 +/- 2.9 s, short 3.7 +/- 0.8 s) came to 2750.
Consider “UGAGGUAGUAGGUUGUAUAGUUUUAGGGUCACACCCACCACUGGGAGAUAACUAUACAAUCUACUGUCUUUCU [pre-let-7a-1 3' 2nt (standard)]”, for which the binding signal (binding events) in data set [1] (with N2 at equal concentration, 57.7% long binding) was 7410; in data set [1] (with N4, long 19.1 s, short 3.0 +/- 1.05 s, 54.0%), 8050. Besides, the binding signal (s (long dwell time)) was determined as 17 in data set [1] (with N3, 54.7% long, short 1.4 +/- 0.3 s); 21.9 in data set [6] (43.1% long, short 2.8 +/- 0.7 s, 56.9%, panel assignment from figure order); 13.9 in data set [7] (48.1% long, short 1.5 +/- 0.4 s, 51.9%). In addition, the binding signal (% inhibition of binding) in data set [2] was found to be 77.9; in data set [3], 29; in data set [4], 83; in data set [5], 6.1. For the same sequence, the binding signal (bound spots per field) in data set [6] (setting [8]) came out at 58; in data set [7] (setting [8]) it was 781. In addition, the binding signal (s (dwell time)) in the data set with TRBP recombinant (200 pM RNA) is 120.
Turning to “UGAGGUAGUAGGUUGUAUAGUUUUAGGGUCACACCCACCACUGGGAGAUAACUAUACAAUCUACUGUCUUUCU [pre-let-7a-1 3' 2nt-biotin]”, the binding signal (binding events) in data set [1] (3'-biotin) amounted to 2340; in data set [6] (five times more than Dicer-TRBP, 56.7% long, 34.0 +/- 5.6 s, 3'-biotin), 1780; in data set [7] (14.2% long, 27.8 +/- 2.2 s, short 3.7 +/- 1.3 s, 85.8%, 3'-biotin) it was 341. Moreover, the binding signal (s (dwell time)) with TRBP recombinant (no noticeable difference from N1, 3'-biotin) is 120.
For “UGAGGUAGUAGGUUGUAUAGUUUUAGGGUCACACCCACCACUGGGAGAUAACUAUACAAUCUACUGUCUUUCUUUUUUUUUUUUUUUUUUUUUUUUUUUUUUUUUUUUUUUUUUUUUUUUU [pre-let-7a-1 3' U49]”, the binding signal (binding events) in data set [1] (2.5x fewer than N1, 31.0% long, 11.0 +/- 2.3 s, short 1.2 +/- 0.2 s) was found to be 2040. The binding signal (s (dwell time)) with TRBP recombinant (no difference from N1) came out at 120.
